Experimental findings from article PMC8417553 (2021) are described below.

B1: CCR3 (protein)
chain: MTTSLDTVETFGTTSYYDDVGLLCEKADTRALMAQFVPPLYSLVFTVGLLGNVVVVMILIKYRRLRIMTNIYLLNLAISDLLFLVTLPFWIHYVRGHNWVFGHGMCKLLSGFYHTGLYSEIFFIILLTIDRYLAIVHAVFALRARTVTFGVITSIVTWGLAVLAALPEFIFYETEELFEETLCSALYPEDTVYSWRHFHTLRMTIFCLVLPLLVMAICYTGIIKTLLRCPSKKKYKAIRLIFVIMAVFFIFWTPYNVAILLSSYQSILFGNDCERSKHLDLVMLVTEVIAYSHCCMNPVIYAFVGERFRKYLRHFFHRHLLMHLGRYIPFLPSEKLERTSSVSPSTAEPELSIVF
modifications: FITC-labeled CCL11, POPC SMALPs with 30% cholesterol
B2: CCR3 (protein)
chain: B1 chain
modifications: FITC-labeled CCL11, proteoliposomes with 60% cholesterol
B3: CCR3 (protein)
chain: B1 chain
modifications: FITC-labeled CCL11, proteoliposomes with 40% cholesterol

The target of the assay is CCL11 (eotaxin-1) 24-97 (Homo sapiens, UniProt P51671). Description: fluorescence polarization. (In general: Polarisation of emitted light reports the rotation of a fluorescent probe.)
CCL11 (eotaxin-1) 24-97, sequence (P51671 24-97): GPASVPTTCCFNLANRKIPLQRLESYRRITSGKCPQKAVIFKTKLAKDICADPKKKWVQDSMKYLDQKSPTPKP
As usually defined, the Kd is the constant that tells how readily two partners part at equilibrium. B1 had a Kd of 30 nM.
Take B2: the Kd came to 11 nM.
To B3 belongs 20 nM.
